Experimental data taken from patent publication US20160280796A1 (Memorial Sloan Kettering, published 2016).

Key:
[1] = target: T1, MHC1/WT1 peptide complex (soluble, biotinylated MHC-WT1 loaded on streptavidin biosensor) (human); assay: ForteBio Octet QK, biotinylated MHC-WT1 on streptavidin biosensor, antibody at 20 µg/ml, 1:1 model
T1 construct: also called WT1/HLA-A2 complex

[2] = target: T1, MHC1/WT1 peptide complex (soluble, …); assay: ForteBio Octet QK, biotinylated MHC-WT1 on streptavidin biosensor, antibody at 10 µg/ml, 1:1 model

Row | Binder | Kd [1] [nM] | koff [1] [s⁻¹] | kon [1] [M⁻¹ s⁻¹] | Kd [2] [nM] | koff [2] [s⁻¹] | kon [2] [M⁻¹ s⁻¹]
1 | ESK1-OKT3 (bi-specific), full length bi-specific antibody made from ESK1 and anti-CD3 OKT3 by 2-MEA reduction and re-oxidation (bispecific antibody, also called ESK1/OKT3 bi-specific monoclonal antibody) heavy 1: not shown light 1: not shown heavy 2: not shown light 2: DIQMTQSPSSLSASVGDRVTITCSASSSVSYMNWYQQTPGKAPKRWIYDTSKLASGVPSRFSGSGSGTDYTFTISSLQPEDIATYYCQQWSSNPFTFGQGTKLQITRTVAAPSVFIFPPSDEQLKSGTASVVCLLNNFYPREAKVQWKVDNALQSGNSQESVTEQDSKDSTYSLSSTLTLSKADYEKHKVYACEVTHQGLSSPVTKSFNRGEC | 92.2 | 0.0033 | 35800 |  |  | 
2 | ESK1 (full-length antibody, parent of the ESK1-OKT3 bi-specific) (antibody, V domains shown, also called ESK1 mAb) VH: QMQLVQSGAEVKEPGESLRISCKGSGYSFTNFWISWVRQMPGKGLEWMGRVDPGYSYSTYSPSFQGHVTISADKSTSTAYLQWNSLKASDTAMYYCARVQYSGYYDWFDPWGQGTLVTVSS VL: not shown |  |  |  | 9.12 | 0.00499 | 547000
